# Values of other authors, collected in PMC3800467.
# Target: RRGHYY peptide
substance,measurement,value
TEM1 β-lactamase (from UniProt P62593),Ki,140 µM
